Experimental data published in patent CN116554322A (HEJING MEDICAL TECH SHANGHAI CO LTD, dated 2023).
Where two headings read alike, the source gives them in different places.

How the values were obtained:
[1] = molecular target: T1, 人IL-18Rβ蛋白 (IL-18Rβ antigen) (human); test: SPR (Biacore 8K), Fab captured; ratio of kd, the reference itself
T1 sequence (O95256 whole entry, species assumed, looked up): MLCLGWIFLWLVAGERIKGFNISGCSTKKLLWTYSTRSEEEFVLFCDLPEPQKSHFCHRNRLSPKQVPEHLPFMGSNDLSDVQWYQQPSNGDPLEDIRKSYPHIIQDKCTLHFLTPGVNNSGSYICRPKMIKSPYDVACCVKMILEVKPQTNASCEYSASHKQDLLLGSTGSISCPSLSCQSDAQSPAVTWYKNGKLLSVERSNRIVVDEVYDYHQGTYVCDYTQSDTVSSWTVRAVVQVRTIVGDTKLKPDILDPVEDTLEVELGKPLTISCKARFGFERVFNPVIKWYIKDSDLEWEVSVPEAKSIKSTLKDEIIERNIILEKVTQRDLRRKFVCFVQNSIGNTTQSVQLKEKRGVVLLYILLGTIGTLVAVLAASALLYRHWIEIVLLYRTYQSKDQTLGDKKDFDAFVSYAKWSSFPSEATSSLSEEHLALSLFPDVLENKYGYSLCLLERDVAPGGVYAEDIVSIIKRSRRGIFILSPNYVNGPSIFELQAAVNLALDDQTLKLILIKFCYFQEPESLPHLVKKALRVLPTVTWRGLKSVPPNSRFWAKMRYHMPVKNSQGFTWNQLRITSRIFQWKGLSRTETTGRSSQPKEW

[2] = molecular target: T1, 人IL-18Rβ蛋白 (IL-18Rβ antigen) (human); test: SPR (Biacore 8K), secreted Fab captured on SASA sensor, antigen injected, 1:1 fit
[3] = molecular target: T1, 人IL-18Rβ蛋白 (IL-18Rβ antigen) (human); test: SPR (Biacore 8K), antibody captured on protein A chip, human IL-18Rβ 6.25-400 nM injected, 25°C
[4] = molecular target: T2, IL-18Rβ on KG-1 cells and human PBMC (human, UniProt O95256 20-599); test: cell-based or functional assay
T2 sequence (looked up): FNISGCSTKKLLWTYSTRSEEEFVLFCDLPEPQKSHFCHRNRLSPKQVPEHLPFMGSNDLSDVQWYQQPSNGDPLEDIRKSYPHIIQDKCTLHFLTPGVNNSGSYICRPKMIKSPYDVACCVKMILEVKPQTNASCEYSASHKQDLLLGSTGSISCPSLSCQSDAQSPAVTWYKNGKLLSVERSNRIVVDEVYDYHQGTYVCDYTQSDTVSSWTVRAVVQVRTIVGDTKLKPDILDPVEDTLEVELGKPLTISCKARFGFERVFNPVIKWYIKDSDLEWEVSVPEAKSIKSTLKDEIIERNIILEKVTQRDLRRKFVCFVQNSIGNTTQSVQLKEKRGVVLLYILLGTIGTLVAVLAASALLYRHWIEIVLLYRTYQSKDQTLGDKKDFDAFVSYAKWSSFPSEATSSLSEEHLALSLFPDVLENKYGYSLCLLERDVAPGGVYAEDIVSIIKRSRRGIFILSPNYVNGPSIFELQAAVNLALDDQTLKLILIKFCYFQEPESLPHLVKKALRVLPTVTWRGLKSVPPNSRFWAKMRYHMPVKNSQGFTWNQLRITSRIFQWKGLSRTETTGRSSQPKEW

[5] = molecular target: T3, 人IL-18Rβ蛋白 (IL-18Rβ antigen) (human); test: SPR (Biacore 8K), secreted Fab captured on SASA sensor, antigen injected, 1:1 fit
T3 chain: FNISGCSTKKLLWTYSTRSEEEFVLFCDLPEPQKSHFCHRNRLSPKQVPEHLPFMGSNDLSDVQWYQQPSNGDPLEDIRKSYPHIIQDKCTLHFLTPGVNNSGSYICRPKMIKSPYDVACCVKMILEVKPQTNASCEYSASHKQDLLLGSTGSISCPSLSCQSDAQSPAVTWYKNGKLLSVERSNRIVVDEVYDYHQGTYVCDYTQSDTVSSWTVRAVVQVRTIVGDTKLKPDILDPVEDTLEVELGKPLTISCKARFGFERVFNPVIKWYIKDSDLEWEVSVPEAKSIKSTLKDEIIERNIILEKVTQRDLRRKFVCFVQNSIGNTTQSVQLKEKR

[6] = molecular target: T3, 人IL-18Rβ蛋白 (IL-18Rβ antigen); test: SPR (Biacore 8K), Fab captured; ratio of kd of C056-WT to kd of the clone

Row | Binder | IC50(nM), inhibition of IL-18-stimulated IFN-γ release in KG-1 cells [4] | Kd [5] | koff [5] | kon [5] | 比值(kd) [6] | also measured
1 | C056-WT Fab (wild-type anti-IL-18Rβ antibody) (Fab, V domains shown) VH: EVQLVESGGGLVQPGGSLRLSCAASGFNLYYSSMHWVRQAPGKGLEWVASIYSSNGRTYYADSVKGRFTISADTSKNTAYLQMNSLRAEDTAVYYCARSSFSHGYGWYGLDYWGQGTLVTVSS VL: DIQMTQSPSSLSASVGDRVTITCRASQSVSSAVAWYQQKPGKAPKLLIYSASSLYSGVPSRFSGSRSGTDFTLTISSLQPEDFATYYCQQYGYHDAGLITFGQGTKVEIK | – | – | – | – | – | 比值(kd) [1]: 1; Kd [2]: 17.8 nM; koff [2]: 0.00119 s⁻¹; kon [2]: 66600 M⁻¹ s⁻¹
2 | A035 full-length IgG (antibody, V domains shown) VH: EVQLVESGGGLVQPGGSLRLSCAASGINLYYSSMHWVRQAPGKGLEWVASIYSSNGRTYYADSVKGRFTISADTSKNTAYLQMNSLRAEDTAVYYCARASFSHGYGWYGLDYWGQGTLVTVSS VL: DIQMTQSPSSLSASVGDRVTITCRASQSVSFAVEWYQQKPGKAPKLLIYSASSLYSGVPSRFSGSRSGTDFTLTISSLQPEDFATYYCQQYGYHDAGLITFGQGTKVEIK | 0.26 nM | – | – | – | – | potency relative to WT antibody, KG-1 IFN-γ assay [4]: ~20 fold
3 | A037 full-length IgG (antibody, V domains shown) VH: EVQLVESGGGLVQPGGSLRLSCAASGLNLYYSSMHWVRQAPGKGLEWVASIYSSNGRTYYADSVKGRFTISADTSKNTAYLQMNSLRAEDTAVYYCARSSFSHGYGWYGLDYWGQGTLVTVSS VL: DIQMTQSPSSLSASVGDRVTITCRASQSVSFAVDWYQQKPGKAPKLLIYSASSLYSGVPSRFSGSRSGTDFTLTISSLQPEDFATYYCQQYGYHDAGLITFGQGTKVEIK | 0.27 nM | – | – | – | – | potency relative to WT antibody, KG-1 IFN-γ assay [4]: ~20 fold
4 | A036 Fab clone (Fab, V domains shown) VH: EVQLVESGGGLVQPGGSLRLSCAASGINLYYSSMHWVRQAPGKGLEWVASIYSSNGRTYYADSVKGRFTISADTSKNTAYLQMNSLRAEDTAVYYCARASFSHGYGWYGLDYWGQGTLVTVSS VL: DIQMTQSPSSLSASVGDRVTITCRASQSVSSAVDWYQQKPGKAPKLLIYSASSLYSGVPSRFSGSRSGTDFTLTISSLQPEDFATYYCQQYGYHDAGLITFGQGTKVEIK | – | 0.648 nM | 6.91e-05 s⁻¹ | 107000 M⁻¹ s⁻¹ | 17.2 | –
5 | A037 Fab clone (Fab, V domains shown, Mutations against C056-WT: VL-S31F/VL-A34D/VH-F27L) VH: EVQLVESGGGLVQPGGSLRLSCAASGLNLYYSSMHWVRQAPGKGLEWVASIYSSNGRTYYADSVKGRFTISADTSKNTAYLQMNSLRAEDTAVYYCARSSFSHGYGWYGLDYWGQGTLVTVSS VL: DIQMTQSPSSLSASVGDRVTITCRASQSVSFAVDWYQQKPGKAPKLLIYSASSLYSGVPSRFSGSRSGTDFTLTISSLQPEDFATYYCQQYGYHDAGLITFGQGTKVEIK | – | 0.00847 nM | 1e-06 s⁻¹ | 118000 M⁻¹ s⁻¹ | 1190 | –
6 | A038 Fab clone (Fab, V domains shown, Mutations against C056-WT: VL-A34E/VH-F27I) VH: EVQLVESGGGLVQPGGSLRLSCAASGINLYYSSMHWVRQAPGKGLEWVASIYSSNGRTYYADSVKGRFTISADTSKNTAYLQMNSLRAEDTAVYYCARSSFSHGYGWYGLDYWGQGTLVTVSS VL: DIQMTQSPSSLSASVGDRVTITCRASQSVSSAVEWYQQKPGKAPKLLIYSASSLYSGVPSRFSGSRSGTDFTLTISSLQPEDFATYYCQQYGYHDAGLITFGQGTKVEIK | – | 0.725 nM | 5.67e-05 s⁻¹ | 78200 M⁻¹ s⁻¹ | 21 | –
7 | A035 Fab clone (Fab, V domains shown, Mutations against C056-WT: VL-S31F/VL-A34E/VH-F27I/VH-S99A) VH: EVQLVESGGGLVQPGGSLRLSCAASGINLYYSSMHWVRQAPGKGLEWVASIYSSNGRTYYADSVKGRFTISADTSKNTAYLQMNSLRAEDTAVYYCARASFSHGYGWYGLDYWGQGTLVTVSS VL: DIQMTQSPSSLSASVGDRVTITCRASQSVSFAVEWYQQKPGKAPKLLIYSASSLYSGVPSRFSGSRSGTDFTLTISSLQPEDFATYYCQQYGYHDAGLITFGQGTKVEIK | – | 0.224 nM | 3.19e-05 s⁻¹ | 143000 M⁻¹ s⁻¹ | 37.3 | –

Second part, led by results:

Row | IC50(nM), inhibition of IL-18-stimulated IFN-γ release in KG-1 cells [4] | Kd [5] | koff [5] | kon [5] | 比值(kd) [6] | Binder | also measured
8 | 8.14 nM | – | – | – | – | C056-WT full-length antibody (parental antibody WT) (antibody, V domains shown) VH: EVQLVESGGGLVQPGGSLRLSCAASGFNLYYSSMHWVRQAPGKGLEWVASIYSSNGRTYYADSVKGRFTISADTSKNTAYLQMNSLRAEDTAVYYCARSSFSHGYGWYGLDYWGQGTLVTVSS VL: DIQMTQSPSSLSASVGDRVTITCRASQSVSSAVAWYQQKPGKAPKLLIYSASSLYSGVPSRFSGSRSGTDFTLTISSLQPEDFATYYCQQYGYHDAGLITFGQGTKVEIK | Kd [3]: 15.8 nM
9 | 0.59 nM | – | – | – | – | A039 full-length IgG (antibody, V domains shown) VH: EVQLVESGGGLVQPGGSLRLSCAASGINLYYSSMHWVRQAPGKGLEWVASIYSSNGRTYYADSVKGRFTISADTSKNTAYLQMNSLRAEDTAVYYCARSSFSHGYGWYGLDYWGQGTLVTVSS VL: DIQMTQSPSSLSASVGDRVTITCRASQSVSSAVDWYQQKPGKAPKLLIYSASSLYSGVPSRFSGSRSGTDFTLTISSLQPEDFATYYCQQYGYHDAGLITFGQGTKVEIK | potency relative to WT antibody, KG-1 IFN-γ assay [4]: ~20 fold
10 | – | 0.26 nM | 3e-05 s⁻¹ | 115000 M⁻¹ s⁻¹ | 39.7 | A039 Fab clone (Fab, V domains shown, Mutations against C056-WT: VL-A34D/VH-F27I) VH: EVQLVESGGGLVQPGGSLRLSCAASGINLYYSSMHWVRQAPGKGLEWVASIYSSNGRTYYADSVKGRFTISADTSKNTAYLQMNSLRAEDTAVYYCARSSFSHGYGWYGLDYWGQGTLVTVSS VL: DIQMTQSPSSLSASVGDRVTITCRASQSVSSAVDWYQQKPGKAPKLLIYSASSLYSGVPSRFSGSRSGTDFTLTISSLQPEDFATYYCQQYGYHDAGLITFGQGTKVEIK | –
11 | – | 1.04 nM | 8e-05 s⁻¹ | 77000 M⁻¹ s⁻¹ | 14.9 | A040 Fab clone (Fab, V domains shown) VH: EVQLVESGGGLVQPGGSLRLSCAASGLNLYYSSMHWVRQAPGKGLEWVASIYSSNGRTYYADSVKGRFTISADTSKNTAYLQMNSLRAEDTAVYYCARSSFSHGYGWYGLDYWGQGTLVTVSS VL: DIQMTQSPSSLSASVGDRVTITCRASQSVSSAVEWYQQKPGKAPKLLIYSASSLYSGVPSRFSGSRSGTDFTLTISSLQPEDFATYYCQQYGYHDAGLITFGQGTKVEIK | –
12 | – | 0.415 nM | 6.35e-05 s⁻¹ | 153000 M⁻¹ s⁻¹ | 18.7 | A041 Fab clone (Fab, V domains shown) VH: EVQLVESGGGLVQPGGSLRLSCAASGVNLYYSSMHWVRQAPGKGLEWVASIYSSNGRTYYADSVKGRFTISADTSKNTAYLQMNSLRAEDTAVYYCARASFSHGYGWYGLDYWGQGTLVTVSS VL: DIQMTQSPSSLSASVGDRVTITCRASQSVSFAVDWYQQKPGKAPKLLIYSASSLYSGVPSRFSGSRSGTDFTLTISSLQPEDFATYYCQQYGYHDAGLITFGQGTKVEIK | –
13 | – | 1.34 nM | 0.000106 s⁻¹ | 79000 M⁻¹ s⁻¹ | 11.2 | A042 Fab clone (Fab, V domains shown) VH: EVQLVESGGGLVQPGGSLRLSCAASGLNLYYSSMHWVRQAPGKGLEWVASIYSSNGRTYYADSVKGRFTISADTSKNTAYLQMNSLRAEDTAVYYCARASFSHGYGWYGLDYWGQGTLVTVSS VL: DIQMTQSPSSLSASVGDRVTITCRASQSVSSAVEWYQQKPGKAPKLLIYSASSLYSGVPSRFSGSRSGTDFTLTISSLQPEDFATYYCQQYGYHDAGLITFGQGTKVEIK | –
